In publication PMC12013499:

How the values were obtained:
Experiment in all cases: EMSA
Conditions in all cases: EMSA: 0.5 pmol 32P-tRNA, 0-4 uM enzyme, 20 C, 10 min, 18.5% glycerol added, 5% native PAGE; buffer and pH not given (as in cited refs); n = 3
[1] = tested on: T1, RcuCCA (Romanomermis culicivorax)
T1 sequence: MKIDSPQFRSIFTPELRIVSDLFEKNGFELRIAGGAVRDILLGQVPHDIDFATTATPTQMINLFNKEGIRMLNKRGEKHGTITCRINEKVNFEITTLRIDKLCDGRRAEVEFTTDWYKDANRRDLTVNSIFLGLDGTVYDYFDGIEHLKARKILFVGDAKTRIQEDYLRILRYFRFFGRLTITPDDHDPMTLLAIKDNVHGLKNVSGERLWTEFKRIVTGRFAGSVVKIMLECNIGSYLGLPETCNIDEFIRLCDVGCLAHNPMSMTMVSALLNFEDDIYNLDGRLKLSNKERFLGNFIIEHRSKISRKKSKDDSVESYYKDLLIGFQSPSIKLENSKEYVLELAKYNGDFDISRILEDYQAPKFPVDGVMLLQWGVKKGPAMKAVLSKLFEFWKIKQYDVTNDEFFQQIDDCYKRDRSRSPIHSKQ

AsuCCA (Ascaris suum) = tested on: T2, AsuCCA (Ascaris suum)
T2 sequence: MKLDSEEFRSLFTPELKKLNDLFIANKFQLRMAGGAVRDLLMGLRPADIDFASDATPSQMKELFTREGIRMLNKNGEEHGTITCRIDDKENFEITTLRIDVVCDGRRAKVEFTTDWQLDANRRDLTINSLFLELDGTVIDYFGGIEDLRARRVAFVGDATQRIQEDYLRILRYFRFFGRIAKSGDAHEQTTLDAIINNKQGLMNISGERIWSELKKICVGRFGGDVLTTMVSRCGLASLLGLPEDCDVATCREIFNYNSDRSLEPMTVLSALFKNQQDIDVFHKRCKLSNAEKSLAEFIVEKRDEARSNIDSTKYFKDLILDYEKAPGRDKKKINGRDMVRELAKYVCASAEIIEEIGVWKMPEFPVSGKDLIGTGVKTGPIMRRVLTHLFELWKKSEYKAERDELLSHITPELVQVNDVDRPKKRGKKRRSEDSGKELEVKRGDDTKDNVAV

[2] = tested on: T3, AsuCCA-Hsaβ (Ascaris suum / Homo sapiens chimera)
T3 sequence: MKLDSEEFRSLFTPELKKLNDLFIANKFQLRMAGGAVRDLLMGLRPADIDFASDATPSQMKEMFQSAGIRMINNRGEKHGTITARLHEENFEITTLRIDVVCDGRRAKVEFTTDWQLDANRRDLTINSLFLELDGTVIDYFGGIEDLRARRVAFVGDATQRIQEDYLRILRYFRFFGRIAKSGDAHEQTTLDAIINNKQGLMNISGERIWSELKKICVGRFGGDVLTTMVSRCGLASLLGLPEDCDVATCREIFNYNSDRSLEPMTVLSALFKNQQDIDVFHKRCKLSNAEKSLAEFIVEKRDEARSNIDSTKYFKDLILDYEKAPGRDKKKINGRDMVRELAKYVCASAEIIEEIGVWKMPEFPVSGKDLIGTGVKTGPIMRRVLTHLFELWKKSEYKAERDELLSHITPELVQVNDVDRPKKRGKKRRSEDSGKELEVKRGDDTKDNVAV

[3] = tested on: T4, HsaCCA-AsuC40 (Homo sapiens / Ascaris suum chimera)
T4 sequence: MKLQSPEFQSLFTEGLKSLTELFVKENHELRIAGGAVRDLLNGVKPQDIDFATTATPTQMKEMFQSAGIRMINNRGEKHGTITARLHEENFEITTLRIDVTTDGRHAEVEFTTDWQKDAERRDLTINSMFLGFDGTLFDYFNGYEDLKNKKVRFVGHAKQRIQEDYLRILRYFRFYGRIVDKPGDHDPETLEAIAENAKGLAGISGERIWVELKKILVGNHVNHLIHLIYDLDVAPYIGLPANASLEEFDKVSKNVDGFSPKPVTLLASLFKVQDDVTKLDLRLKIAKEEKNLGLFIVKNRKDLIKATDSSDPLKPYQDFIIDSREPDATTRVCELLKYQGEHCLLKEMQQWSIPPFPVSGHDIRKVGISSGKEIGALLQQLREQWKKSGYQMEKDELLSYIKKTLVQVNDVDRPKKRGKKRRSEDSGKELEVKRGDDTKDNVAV

[4] = tested on: T5, AsuCCA ΔC40 delC-terminal 40 residues (Ascaris suum)
T5 sequence: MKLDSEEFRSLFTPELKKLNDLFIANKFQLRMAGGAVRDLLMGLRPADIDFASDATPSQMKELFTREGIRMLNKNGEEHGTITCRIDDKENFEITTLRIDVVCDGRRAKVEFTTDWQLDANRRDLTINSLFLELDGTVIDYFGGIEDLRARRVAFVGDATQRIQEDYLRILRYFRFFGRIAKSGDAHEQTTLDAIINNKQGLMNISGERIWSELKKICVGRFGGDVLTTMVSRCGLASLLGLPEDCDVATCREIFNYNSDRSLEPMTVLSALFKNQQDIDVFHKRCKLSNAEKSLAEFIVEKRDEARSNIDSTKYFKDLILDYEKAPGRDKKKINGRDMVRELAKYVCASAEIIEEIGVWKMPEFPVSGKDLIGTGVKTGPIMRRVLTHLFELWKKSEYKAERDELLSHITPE

## Rcu mt-tRNAIle (armless)
[1]
  Kd: 1400 nM
AsuCCA (Ascaris suum)
  Kd: 1100 nM
[2]
  Kd: 300 nM
[3]
  Kd: 600 nM

## Sce tRNAPhe (canonical)
[1]
  Kd: 1600 nM
AsuCCA (Ascaris suum)
  Kd: 500 nM
[2]
  Kd: 300 nM
[3]
  Kd: 700 nM
[4]
  Kd: 1700 nM
